Measurements from patent US20080108569A1, “Compositions and Methods for Treating Diseases Associated With Phlpp” (The Regents of the University of California, priority 2005, published 2008).

What was measured:
[1] = biological target: T1, Akt (Homo sapiens, UniProt P31749); assay: phosphatase assay with purified GST-tagged PHLPP2 PP2C domain and pure phosphorylated Akt; format: biochemical; settings: in 5 minutes, pure
T1 construct: 6His; made in house; host or cells: Akt1: baculovirus-infected Sf21 cells; HA-PHLPP2: transfected 293T cells, immunoprecipitated with HA antibody
Method: A GST-fusion protein of PHLPP-1α-PP2C was expressed in BL21 (DE3) and purified using glutathione-Sepharose. The GST-PP2C proteins were eluted from the beads in PBS containing 10 mM glutathione and 1 mM DTT, and dialyzed against 50 mM Tris (pH 7.4) and 1 mM DTT. His-tagged Akt was expressed and purified from baculovirus-infected Sf21 cells. Briefly, Sf21 cells were maintained in SF-900 II media (Invitrogen) and infected with baculovirus encoding His-Akt for 3 days. To obtain maximally phosphorylated Akt as substrate, the infected cells were treated with 10% FBS and calyculin A (100 nM) for 15 minutes prior to lysis. The infected cells were lysed in PBS containing 1% Triton X-100 and 10 mM imidazole, and His-Akt proteins were purified using Ni-NTA beads (Qiagen). The dephosphorylation reactions were carried out in a reaction buffer containing 50 mM Tris (pH 7.4), 1 mM DTT and 5 mM MnCl2 at 30° C. for 0-30 minutes. […]
GST-PP2C was expressed in BL21 bacterial cells; phosphatase assays were performed using the purified GST-PP2C construct conjugated to glutathione-sepharose and pure Akt as a substrate as described above. The activity of full length HA-PHLPP2 was assessed by expressing and immunoprecipitating PHLPP2 from 293T or H157 cell lysates. […]

[2] = test system: LN229 cells; assay: growth rate of glioblastoma cells transfected with PHLPP (viable cells in G418 media); format: cell-based, human; settings: glioblastoma cell line wild-type in PTEN
Method: (§1) LN229 cells were transfected with vector, HA-PHLPP or HA-ΔC. Approximately 30 hours post-transfection, the cells were switched to selection media (DMEM, 10% FBS, 1% penicillin/streptomycin and 800 μg/ml G418). The viable cells were counted after 7 days in selection media. The number of viable cells reflects the effect of PHLPP on cell proliferation. The G418 resistant stable cells were propagated and expanded for an additional 2-3 passages to obtain the number of cells needed for mice injection. For subcutaneous inoculation, 3×10^6 or 5×10^6 cells were injected into 4- to 5-week old female nude mice of BALB/c background. The size of tumors was measured once a week with a caliper, and tumor volumes were defined as (longest diameter)×(shortest diameter)^2×0.5. Tumors were excised from individual mice and flash frozen in liquid N2. The tumor samples were homogenized in buffer A, and detergent-solubilized lysates were subjected to SDS-PAGE and Western blotting analysis.

[3] = test system: LN229 cells; assay: tumorigenicity of subcutaneously injected glioblastoma cells transfected with PHLPP; format: in vivo, nude mice of BALB/c background; settings: subcutaneous injection
Method: as §1

T1 sequence (P31749 whole entry, the tested form may be a part): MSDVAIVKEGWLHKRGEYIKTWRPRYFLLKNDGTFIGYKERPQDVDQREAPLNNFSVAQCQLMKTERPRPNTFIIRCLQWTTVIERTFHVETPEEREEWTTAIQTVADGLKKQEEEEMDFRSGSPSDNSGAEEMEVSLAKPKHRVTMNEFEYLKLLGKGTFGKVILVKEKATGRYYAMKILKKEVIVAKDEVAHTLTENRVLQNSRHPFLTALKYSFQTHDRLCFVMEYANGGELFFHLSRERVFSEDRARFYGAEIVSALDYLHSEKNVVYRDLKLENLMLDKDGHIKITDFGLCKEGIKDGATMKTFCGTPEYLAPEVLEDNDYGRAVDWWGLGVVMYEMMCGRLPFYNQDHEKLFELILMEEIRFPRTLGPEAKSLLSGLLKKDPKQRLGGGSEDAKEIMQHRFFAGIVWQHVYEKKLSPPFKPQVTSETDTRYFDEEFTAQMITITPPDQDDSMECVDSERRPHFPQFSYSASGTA

dephosphorylation of Ser 473 (P473) [1]	dephosphorylation of Thr 308 (P308) [1]	Molecule	decrease of the growth rate [2]	ability of the cells to induce tumors [3]
82+6%	70+2%	PHLPP2 PP2C domain: GST-tagged PP2C domain of PHLPP2 (residues 780-1030) expressed in bacteria (protein, left off: a dimerising Fc or GST, GST-tagged PP2C domain of PHLPP2 (residues 780-1030) expressed in bacteria) TSTFWSHGLAEMAGQRNKLCVSALAMDSFAEGVGAVYGMFDGDRNEELPRLLQCTMADVLLEEVQQSTNDTVFMANTFLVSHRKLGMAGQKLGSSALLCYIRPDTADPASSFSLTVANVGTCQAVLCRGGKPVPLSKVFSLEQDPEEAQRVKDQKAIITEDNKVNGVTCCTRMLGCTYLYPWILPKPHISSTPLTIQDELLILGNKALWEHLSYTEAVNAVRHVQDPLAAAKKLCTLAQSYGCQDNVGAMV		
		PHLPP: PH domain Leucine rich repeat Protein Phosphatase; HA-PHLPP-1α construct transfected into LN229 glioblastoma cells (SEQ ID NO: 2) (protein, listed as Homo sapiens, HA tag) MDSEIGCLIRFYAGKPHSTGSSERIQLSGMYNVRKGKMQLPVNRWTRRQVILCGTCLIVSSVKDSLTGKMHVLPLIGGKVEEVKKHQHCLAFSSSGPQSQTYYICFDTFTEYLRWLRQVSKVASQRISSVDLSCCSLEHLPANLFYSQDLTHLNLKQNFLRQNPSLPAARGLNELQRFTKLKSLNLSNNHLGDFPLAVCSIPTLAELNVSCNALRSVPAAVGVMHNLQTFLLDGNFLQSLPAELENMKQLSYLGLSFNEFTDIPEVLEKLTAVDKLCMSGNCVETLRLQALRKMPHIKHVDLRLNVIRKLIADEVDFLQHVTQLDLRDNKLGDLDAMIFNNIEVLHCERNQLVTLDICGYFLKALYASSNELVQLDVYPVPNYLSYMDVSRNRLENVPEWVCESRKLEVLDIGHNQICELPARLFCNSSLRKLLAGHNQLARLPERLERTSVEVLDVQHNQLLELPPNLLMKADSLRFLNASANKLESLPPATLSEETNSILQELYLTNNSLTDKCVPLLTGHPHLKILHMAYNRLQSFPASKMAKLEELEEIDLSGNKLKAIPTTIMNCRRMHTVIAHSNCIEVFPEVMQLPEIKCVDLSCNELSEVTLPENLPPKLQELDLTGNPRLVLDHKTLELLNNIRCFKIDQPSTGDASGAPAVWSHGYTEASGVKNKLCVAALSVNNFCDNREALYGVFDGDRNVEVPYLLQCTMSDILAEELQKTKNEEEYMVNTFIVMQRKLGTAGQKLGGAAVLCHIKHDPVDPGGSFTLTSANVGKCQTVLCRNGKPLPLSRSYIMSCEEELKRIKQHKAIITEDGKVNGVTESTRILGYTFLHPSVVPRPHVQSVLLTPQDEFFILGSKGLWDSLSVEEAVEAVRNVPDALAAAKKLCTLAQSYGCHDSISAVVVQLSVTEDSFCCCELSAGGAVPPPSPGIFPPSVNMVIKDRPSDGLGVPSSSSGMASEISSELSTSEMSSEVGSTASDEPPPGALSENSPAYPSEQRCMLHPICLSNSFQRQLSSATFSSAFSDNGLDSDDEEPIEGVFTNGSRVEVEVDIHCSRAKEKEKQQHLLQVPAEASDEGIVISANEDEPGLPRKADFSAVGTIGRRRANGSVAPQERSHNVIEVATDAPLRKPGGYFAAPAQPDPDDQFIIPPELEEEVKEIMKHHQEQQQQQQPPPPPQLQPQLPRHTQLDQLPDYYDTPL	approximately 50%	dramatically reduces
